According to PMC4850266:

Target: A. fumigatus FKBP12(V91C) (Aspergillus fumigatus)
Test: cross-linking; disulfide trapping through the single cysteine V91C; protein purified from C41(DE3) and SHuffle cells without reducing agent; nonreducing SDS-PAGE

Q: Which stoichiometry N does the source give for A. fumigatus FKBP12(V91C) (enzyme) here?
A: 2
